According to patent US20150376286A1 (Amgen, published 2015):

Legend:
[1] = target: T1, human adrenomedullin receptor 2 (hCRLR + hRAMP3) (human, UniProt O60896 24-148); test: immunohistochemistry, CHO cells expressing recombinant human adrenomedullin receptor 2 (CRLR+RAMP3), staining intensity (visual score); the text says no staining was observed
T1 construct: whole, on cells; CHO cell line bought from EuroScreen; also called hAM2; AM2
Description: (§1) 2-4×10⁶ cells were injected per colla plug (Integra LifeSciences Co., Plainsboro, N.J.). Colla plugs were embedded in OCT medium (Sakura Finetek Inc., Torrance, Calif.), frozen at −20° C. and cut into 20 μm sections using a cryostat. Sections were fixed with 4% paraformaldehyde for 1 hour at room temperature (RT) and subsequently washed in phosphate-buffered saline (PBS). Endogenous peroxidase was blocked with 3% H₂O₂/PBS for 15 min and sections were incubated in blocking solution (PBS with 3% normal goat serum (Vector Labs, Burlingame, Calif.) and 0.3% triton X-100) for 1 hour. […] Sections were cleared with xylene and cover slipped with Permount (Fisher Chemicals, Fair Lawn, N.J.). Immunoreactivity was analyzed using a Nikon E-800 microscope and associated software (Nikon, Melville, N.Y.).

[2] = target: T2, human amylin AMY1 receptor (hCTR + hRAMP1) (human, UniProt P30988 25-474); test: immunohistochemistry, MCF-7 cells endogenously expressing amylin receptors, staining intensity (visual score); the text says no staining was observed
T2 construct: whole, on cells; Endogenous in MCF-7 cells (ATCC HTB-22); also called hAmylin 1; hAMY1
Description: as §1

[3] = target: T3, chimeric CGRP receptor: CRLR chimera #1 (L24 to Q33) + RAMP1 wt (human/rat chimera; human, UniProt Q16602 1-461; O60894 27-148); test: FACS on transfected 293-6E cells
T3 construct: also called CRLR L24-Q33+RAMP wt
Description: Cells were harvested after 72 hr, washed with PBS+0.5% BSA, and counted. Each transfected cell line was resuspended at a dilution of 5×10⁵ cells per 100 μl PBS/BSA. 100 μl of cell suspension was aliquot per well in a 96-well round-bottom plate (Falcon). The cells were pelleted at 1200 rpm for 5 min. […] Cells were incubated on ice for 1 hr. and then washed twice with PBS/BSA. […] Cells were incubated on ice in the dark for 1 hr. and then washed twice with PBS/BSA. Cells were resuspended in 200 μl PBS/BSA and analyzed using a FACS Calibur.

[4] = target: T4, human adrenomedullin receptor 1 (hCRLR + hRAMP2) (human, UniProt O60895 43-175); test: immunohistochemistry, HEK cells expressing recombinant human adrenomedullin receptor 1 (CRLR+RAMP2), staining intensity (visual score); the text says no staining was observed
T4 construct: whole, on cells; also called hAM1; AM1
Description: as §1

[5] = target: T5, human CGRP receptor (CRLR + RAMP1) (human, UniProt Q16602 23-461; O60894 27-148); test: immunohistochemistry, CGRP/CHO cells, staining intensity (visual score)
T5 construct: also called hCGRP R; huCGRP R
Description: as §1

[6] = target: T6, cynomolgus CGRP receptor (cynoCRLR + cynoRAMP1) (cynomolgus monkey); test: cell-based or functional assay
T6 chain 1: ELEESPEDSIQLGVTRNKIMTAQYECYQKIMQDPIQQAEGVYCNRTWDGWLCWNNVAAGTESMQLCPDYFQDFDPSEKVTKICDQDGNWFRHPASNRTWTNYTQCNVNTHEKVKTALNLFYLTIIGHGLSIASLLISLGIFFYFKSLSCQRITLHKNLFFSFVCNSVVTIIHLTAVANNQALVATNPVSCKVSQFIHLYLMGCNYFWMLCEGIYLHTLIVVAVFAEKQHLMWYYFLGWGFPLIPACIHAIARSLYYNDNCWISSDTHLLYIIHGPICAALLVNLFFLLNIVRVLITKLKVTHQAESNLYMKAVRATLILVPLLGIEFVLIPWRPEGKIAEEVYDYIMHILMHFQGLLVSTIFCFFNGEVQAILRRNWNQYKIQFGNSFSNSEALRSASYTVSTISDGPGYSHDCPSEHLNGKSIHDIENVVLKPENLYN
T6 chain 2: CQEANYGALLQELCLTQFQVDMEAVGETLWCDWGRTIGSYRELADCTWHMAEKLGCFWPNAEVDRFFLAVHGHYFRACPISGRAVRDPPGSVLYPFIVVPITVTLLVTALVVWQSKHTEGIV

[7] = target: T2, human amylin AMY1 receptor (hCTR + …); test: cell-based or functional assay
[8] = target: T1, human adrenomedullin receptor 2 (hCRLR …); test: cell-based or functional assay
[9] = target: T4, human adrenomedullin receptor 1 (hCRLR …); test: cell-based or functional assay

T2 sequence (P30988 25-474): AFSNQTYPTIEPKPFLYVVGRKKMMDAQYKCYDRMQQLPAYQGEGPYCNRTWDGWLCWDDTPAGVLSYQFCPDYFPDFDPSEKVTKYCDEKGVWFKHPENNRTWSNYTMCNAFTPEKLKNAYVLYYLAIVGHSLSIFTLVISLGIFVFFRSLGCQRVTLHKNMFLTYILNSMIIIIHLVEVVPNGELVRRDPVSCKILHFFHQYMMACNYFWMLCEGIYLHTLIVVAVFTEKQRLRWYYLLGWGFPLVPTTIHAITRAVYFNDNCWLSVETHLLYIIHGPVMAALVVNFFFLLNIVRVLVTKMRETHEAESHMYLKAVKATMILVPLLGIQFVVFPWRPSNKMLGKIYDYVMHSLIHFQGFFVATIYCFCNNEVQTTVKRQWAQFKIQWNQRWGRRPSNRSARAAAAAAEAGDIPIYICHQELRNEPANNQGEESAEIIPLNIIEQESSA
T1 sequence (O60896 24-148): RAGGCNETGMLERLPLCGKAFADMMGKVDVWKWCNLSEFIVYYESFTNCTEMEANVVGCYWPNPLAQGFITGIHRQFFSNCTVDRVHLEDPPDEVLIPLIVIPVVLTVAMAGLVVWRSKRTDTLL

B1: 32H7 (antibody, human IgG2, kappa, V domains shown)
VH: QVQLVESGGGVVQPGRSLRLSCAASGFTFSSYGMHWVRQAPGKGLEWVAVIWYDGSNKYYADSVKGRFIISRDKSKNTLYLQMNSLRAEDTAVYYCARAGGIAAAGLYYYYGMDVWGQGTTVTVSS
VL: EIVLTQSPGTLSLSPGERATLSCRASQSVSSGYLTWYQQKPGQAPRLLIYGASSRATGIPDRFSGSGSGTDFTLTISRLEPEDFAVYYCQQYGNSLCRFGQGTKLEIKR
notes: also called 32H7.1G
binding result [1]: no binding
binding result [2]: no binding
binding result [3]: binds
binding result [4]: no binding
binding result [5]: binds
cAMP assay IC50 [6]: 1.93 nM
cAMP assay IC50 [7]: > 1000 nM
cAMP assay IC50 [8]: > 1000 nM
cAMP assay IC50 [9]: > 1000 nM
